Laboratory results as given in patent US20250049939A1, “NOVEL FLT3 ANTIBODIES AND ANTIBODY-DRUG-CONJUGATES BASED THEREON, THERAPEUTIC METHODS AND USES THEREOF IN COMBINATION WITH TYROSINE KINASE INHIBITORS” (TUBULIS GmbH, priority 2021, published 2025).

Tests used:
[1] = biological target: T1, FLT3 as expressed on FLT3 positive human leukemia and lymphoma cell lines (e.g. MOLM-13) (human) (UniProt P36888); test: cell-based or functional assay
T1 sequence (looked up): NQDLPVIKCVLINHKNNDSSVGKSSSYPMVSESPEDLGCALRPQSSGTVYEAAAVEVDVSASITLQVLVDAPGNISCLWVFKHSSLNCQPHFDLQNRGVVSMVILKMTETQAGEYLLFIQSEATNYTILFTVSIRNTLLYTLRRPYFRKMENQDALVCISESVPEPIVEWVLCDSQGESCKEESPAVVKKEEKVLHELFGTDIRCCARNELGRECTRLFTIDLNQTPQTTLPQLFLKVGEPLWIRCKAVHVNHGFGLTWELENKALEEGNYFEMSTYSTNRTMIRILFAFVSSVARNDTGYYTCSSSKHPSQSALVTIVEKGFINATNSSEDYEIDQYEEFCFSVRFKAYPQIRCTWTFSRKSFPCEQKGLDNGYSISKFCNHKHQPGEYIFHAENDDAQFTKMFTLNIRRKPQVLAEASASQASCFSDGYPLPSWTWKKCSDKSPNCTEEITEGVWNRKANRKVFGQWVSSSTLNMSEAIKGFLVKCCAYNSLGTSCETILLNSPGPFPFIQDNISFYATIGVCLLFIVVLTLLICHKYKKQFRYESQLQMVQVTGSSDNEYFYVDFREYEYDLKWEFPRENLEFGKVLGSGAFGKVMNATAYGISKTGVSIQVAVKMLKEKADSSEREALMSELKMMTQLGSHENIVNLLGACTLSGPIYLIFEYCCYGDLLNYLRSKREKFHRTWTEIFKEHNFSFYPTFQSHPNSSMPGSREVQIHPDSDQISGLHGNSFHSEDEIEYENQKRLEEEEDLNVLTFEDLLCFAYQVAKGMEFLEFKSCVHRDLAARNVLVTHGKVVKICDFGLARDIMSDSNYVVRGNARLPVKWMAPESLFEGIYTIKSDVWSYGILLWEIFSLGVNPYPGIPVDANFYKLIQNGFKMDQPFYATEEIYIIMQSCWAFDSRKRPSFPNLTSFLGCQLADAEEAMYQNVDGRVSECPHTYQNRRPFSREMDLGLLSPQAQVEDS

[2] = biological target: recombinant human FLT3 protein (human) (UniProt P36888); test: ELISA on recombinant human FLT3, normalized to BSA control

| Kd [2] | Binder | IC50 of cytotoxicity in MOLM-13 cells, 96 h, resazurin [1] |
| --- | --- | --- |
| – | deglycosylated 20D9-ADC (antibody, V domains shown) VH: DVMLVESGGGLVQPGRSLKLSCVASGFTFNNYWMTWIRQAPGKGLEWIASITKTGGGTYYPDSVKGRFTISRDNAKSTLYLQMNSLRSEDTATYYCTTLQQLGVMDAWGQGASVTVSS VL: DVQMTQSPSVLSASVGDRITLNCKASQNINKELNWYQQKLGEAPKLLIYNTNNLQTGIPSRFSGSGSGTDYTLTISSLQPEDVATYFCFQHKSWPLTFGSGTKLEIKR | 0.474 µg/mL |
| 0.134 µg/mL | 19H5 chimeric anti-FLT3 monoclonal antibody (antibody, V domains shown) VH: MVQPSQTLSLTCTVSGFSLTSYNVNWVRQPPGKGLEWIGAMWRGGGTDYNPALKSRLSISRDTSKSQVFLKMNRLQTEDTAIYFCTRGFGDYWGQGVMVTVSS VL: DVQMTQSPSSMSASLGDRVTFTCQASQDIGNNLIYFQQKPGKSPRRMICCATNLAHGVPSRFSGSRSGSDYSLTLVSLESEDVADYHCLQYEHYPRTFGGGTKLELKR | – |
